This note sets out measurements from US20240343803A1 (SHANDONG SIMCERE BIOPHARMACEUTICAL, published 2024).

What is called Kd is the concentration at which binding is half-saturated. A lower Kd goes with a tighter complex. A word on the koff: it is the rate constant with which the complex falls apart. The kon is the rate constant with which the complex forms. In general, IC50 refers to the concentration at which inhibition is half-maximal.

Assay [1] has as its target T1, human PVRIG-mFc protein (Acro, PVG-H5253) (human, UniProt Q6DKI7 41-171, limits assumed).
T1 construct: bought protein
T1 sequence (looked up): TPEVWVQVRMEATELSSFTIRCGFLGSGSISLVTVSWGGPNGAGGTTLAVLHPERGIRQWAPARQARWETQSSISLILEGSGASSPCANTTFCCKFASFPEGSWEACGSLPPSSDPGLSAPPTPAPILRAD
The experiment in a line: FACS competition, PVRIG-mFc binding to CHO-K1-CD112 cells, competitor CD112 on cells. On the procedure:
A working solution of human PVRIG-mFc protein (Acro, PVG-H5253) prepared with staining buffer, 1 μg/mL (four-fold concentration), was added into a 96-well plate (50 μL PVRIG-mFc working solution per well). […] The diluted antibodies were added to the well containing 50 μL of PVRIG-mFc. The plate was placed on a microplate shaker at 400 rpm for 1 minute to fully mix the antibodies and PVRIG-mFc proteins, and then incubated at 4° C. for 30 minutes. After the incubation, the cell suspension prepared above (100 μL) was added into the wells, gently mixed with the pipette tip and incubated at 4° C. for 30 minutes. After the incubation, the cells were washed twice with staining buffer (200 μL per well) and centrifuged at 350×g for 5 minutes to discard the supernatant. The PE goat anti-mouse IgG Fc antibody (Biolegend, 405337) was diluted 250 times with staining buffer, added into the washed wells (100 μL per well), mixed well, and stained at 4° C. for 30 minutes. After staining, the cells were washed twice with staining buffer, finally resuspended with 200 μL staining buffer and analyzed by flow cytometry (BD, Canto II). The weaker the fluorescence signal, the stronger the ability of the antibodies blocks the binding of CHO-K1 human CD112 cells to the PVRIG-mFc protein. An antibody binding curve was drawn with concentration of antibodies as the abscissa and the corresponding Mean Fluorescence Intensity (MFI) as the ordinate. The IC50 value of the antibodies and the AUC value of the binding curve were calculated by using a Four Parameter Logistic Fit (GraphPadPrism9). The smaller the IC50 value and AUC value, the stronger the ability of the antibodies competes with CHO-K1-CD112 cells to bind to human PVRIG-mFc protein. […] […] The smaller the percentage value, the stronger the blocking ability of the antibodies.

Assay [2] deals with T2, human PVRIG-his (AcroBiosystems, Cat NO. PVG-H52H4) (human, UniProt Q6DKI7 41-171, limits assumed).
T2 construct: also called human PVRIG protein
T2 sequence (looked up): T1 sequence (looked up)
The experiment in a line: SPR (BIAcore), antibody captured on Protein A chip, human PVRIG-His analyte. The method, then: Biacore was used to detect the specific binding between anti-PVRIG antibody and human PVRIG protein. Protein A chip was used in the BIAcore assay. The time required for the chip to capture the diluted antibody and saturate the binding antigen to reach Rₘₐₓ (Maximum binding capacity, 50 RU) was measured by manual run. […] The affinity of antibody for antigen was measured by multi-cycle kinetics. In each cycle, the antibodies were injected prior to the injection of gradient concentraions of PVRIG proteins allowing the occurrence of antibody-antigen association and dissociation After each cycle, the Protein A chip was regenerated by Glycine, pH 1.5 (to remove the proteins on the chip). The affinity of antibody for antigen was calculated by BIAcore T200 analysis software.
For orientation: SPR reads the build-up and loss of mass on a sensor chip optically.

Assay [3] addresses T2, human PVRIG-his (AcroBiosystems, Cat …). In words: competition ELISA, PVRIG-His coated, competitor human PVRL2-mFc. The method, then:
The ELISA plate was pre-coated with 100 μL/well of 0.5 μg/mL human PVRIG-his protein (AcroBiosystems, Cat NO. PVG-H52H4). The tested anti-PVRIG antibodies were diluted from the highest concentration of 16 nM (two-fold concentration). The diluted antibodies were mixed with 18 ng/ml human PVRL2-mFc (AcroBiosystems, Cat NO. CD2-H5257) in equal volume, added into the plate (100 μL/well), and incubated with shaking at room temperature for 2.0 hours. […] A HRP substrate, TMB (Thermo, Cat NO. 34029) was added into wells after washing the plate again for color development. After adding a termination solution to terminate the reaction, the absorbance value was read by a microplate reader (MD i3×). An inhibiting curve was drawn with concentration of antibodies as the abscissa and the corresponding OD value as the ordinate. The IC50 value was calculated by using a Four Parameter Logistic Fit (GraphPadPrism9). The smaller the IC50 value, the stronger the ability of the antibodies inhibits the binding between PVRIG and PVRL2. The positive and negative controls are the same as in Example 8.
A general note: In an ELISA, binding on a coated surface is turned into a signal by an enzyme label.

B1: PVRIG-A117 (Fc fusion)
chain: EVQVVESGGGLVQAGGSLRLSCTASEHIYDLYIMGWYRQAPGKDRELVATITYTGSIYIADSVKDRFTISRGNAKNTVSLQMSGLKPEDTAVYYCNADPSGLGRKLYWGQGTQVTVSS
notes: heavy chain antibody VHH-hinge-CH2-CH3, human IgG1 constant part; not shown: human IgG1 hinge-CH2-CH3
For B1, in assay [1], the “% AUC to COM701-hIgG4” value amounted to 130%, the “% AUC to SRF813-hIgG1” value worked out at 72.7%, the “% IC50 to COM701-hIgG4” value turned out to be 134% and the “% IC50 to SRF813-hIgG1” value worked out at 118%. In assay [2], this molecule had a dissociation constant (Kd) of 0.367 nM, a koff of 0.00137 s⁻¹ and a kon of 3.74e+06 M⁻¹ s⁻¹. Also, the IC50 in assay [3] was determined as 0.0528 nM.

B2: PVRIG-A75 (Fc fusion)
chain: QLQLVESGGGLVQSGGSLRLSCAASGRTRSMYVMGWFRQAPGKEREFVGRIKWSGDTTYTSYADFVKGRFTLYGNQARNTVYLQMNSLKPEDTAVYSCAASKFPVSGVPEHYDYWGQGTQVTVSS
notes: as for B1
With B2, in assay [1], the “% AUC to COM701-hIgG4” value turned out to be 101%, the “% AUC to SRF813-hIgG1” value is 86.6%, the “% IC50 to COM701-hIgG4” value worked out at 89.6% and the “% IC50 to SRF813-hIgG1” value amounted to 93.7%. For the same molecule, in assay [2], binding was characterised by a dissociation constant (Kd) of 0.531 nM, the koff turned out to be 5.67e-05 s⁻¹ and the kon is 107000 M⁻¹ s⁻¹. Besides, the IC50 in assay [3] was found to be 0.0621 nM.

B3: PVRIG-A35 (Fc fusion)
chain: EVQVVESGGGLVQSGGSLRLSCAASGRTRSMYVMGWFRQAPGKEREFVGRIKWSGDTTYTSYADFVKGRFTLYGNQARNTVYLQMNSLKPEDTAVYYCNGRSRFNVINAWGTGTLVTVAS
notes: as for B1
On to B3, for which, in assay [1], the “% AUC to COM701-hIgG4” value stood at 145%, the “% AUC to SRF813-hIgG1” value turned out to be 126%, the “% IC50 to COM701-hIgG4” value worked out at 138% and the “% IC50 to SRF813-hIgG1” value is 136%. For the same molecule, in assay [2], the Kd worked out at 0.846 nM, the koff turned out to be 7.53e-06 s⁻¹ and the kon is 8900 M⁻¹ s⁻¹. In assay [3], this molecule came in with an IC50 of 0.0543 nM.

B4: PVRIG-A113 (Fc fusion)
chain: QLQLVESGGGLVQSGGSLRLSCAASGRTRSMYVMGWFRQAPGKEREFVGRIKWSGDTTYTSYADFVKGRFTLYGNQARNTVYLQMNSLKPEDTAVYYCAALPSDYDYRAASYGVDYWGKGTLVTVSS
notes: as for B1
With B4, in assay [1], the “% AUC to COM701-hIgG4” value is 172%, the “% AUC to SRF813-hIgG1” value is 106%, the “% IC50 to COM701-hIgG4” value was determined as 124% and the “% IC50 to SRF813-hIgG1” value was found to be 97.9%. In assay [2], the affinity, expressed as Kd, was 0.203 nM; the koff turned out to be 8.96e-05 s⁻¹; the on-rate constant (kon) worked out at 442000 M⁻¹ s⁻¹. Besides, the IC50 in assay [3] worked out at 0.092 nM.

B5: PVRIG-A30 (Fc fusion)
chain: QVQLVESGGGLVQPGGSLRLSCAASGRTDSMNVMGWFRRAPGKEREFVARIKWNGDTTYTAYADFLKGRFTLYGAVARNRVYLQMNSLQPEDTAVYYCAAGEVSGSSYSPDYGMHYWGKGTLVTVSS
notes: as for B1
As for B5, in assay [1], the “% AUC to COM701-hIgG4” value worked out at 58.9%, the “% AUC to SRF813-hIgG1” value worked out at 58.9%, the “% IC50 to COM701-hIgG4” value was 48.1% and the “% IC50 to SRF813-hIgG1” value turned out to be 64.4%. In assay [2], the Kd amounted to 0.404 nM, the dissociation rate constant (koff) turned out to be 6.36e-05 s⁻¹ and the kon was 157000 M⁻¹ s⁻¹. This molecule also came in with a concentration for half-maximal inhibition (IC50) in assay [3] of 0.255 nM.

B6: PVRIG-A104 (Fc fusion)
chain: EVQVVESGGGLVQAGGSLRLSCAASGRTRSMYVMGWFRQAPGKEREFVGRIKWSGDTTYTSYADFVKGRFTLYGNQARNTVYLQMNSLKPEDTAVYYCYRRSWTNTKLYWGKGIQVTVSS
notes: as for B1
Turning to B6, in assay [1], the “% AUC to COM701-hIgG4” value turned out to be 152%, the “% AUC to SRF813-hIgG1” value turned out to be 111%, the “% IC50 to COM701-hIgG4” value was found to be 118% and the “% IC50 to SRF813-hIgG1” value amounted to 116%. In assay [2], this molecule registered a Kd of 0.0276 nM, a koff of 4.24e-06 s⁻¹ and a kon of 154000 M⁻¹ s⁻¹. In assay [3], this molecule had an IC50 of 0.0659 nM.

B7: PVRIG-A60 (Fc fusion)
chain: QVQLVESGGGLVQSGGSLRLSCAASGRTRSMYVMGWFRQAPGKEREFVGRIKWSGDTTYTSYADFVKGRFTLYGNQARNTVYLQMNSLKPEDAAVYYCNLRRLDGVNYWGKGTLVTVSS
notes: as for B1
B7: in assay [1], the “% AUC to COM701-hIgG4” value was found to be 117%, the “% AUC to SRF813-hIgG1” value is 103%, the “% IC50 to COM701-hIgG4” value was found to be 98.9% and the “% IC50 to SRF813-hIgG1” value was 96.4%. In assay [2], the Kd came out at 0.283 nM, the koff was determined as 3.97e-05 s⁻¹ and the kon was 141000 M⁻¹ s⁻¹. This molecule also yielded an IC50 in assay [3] of 0.0557 nM.

B8: PVRIG-A43 (Fc fusion)
chain: QVQLVESGGGLVQSGGSLRLSCAASGRTRSMYVMGWFRQAPGKEREFVGRIKWSGDTTYTSYADFVKGRFTLYGNQARNTVYLQMNSLKVEDTAVYYCAGRVVPLPSRQRDRYDYWGQGTQVTVSS
notes: as for B1
For B8, in assay [1], the “% AUC to COM701-hIgG4” value came out at 128%, the “% AUC to SRF813-hIgG1” value amounted to 111%, the “% IC50 to COM701-hIgG4” value worked out at 121% and the “% IC50 to SRF813-hIgG1” value worked out at 119%. In addition, in assay [2], the affinity, expressed as Kd, was 0.366 nM; the koff stood at 8.58e-06 s⁻¹; the association rate constant (kon) amounted to 23400 M⁻¹ s⁻¹. For the same molecule, the IC50 in assay [3] came out at 0.0537 nM.

B9: PVRIG-A15 (Fc fusion)
chain: QVQLVESGGGLVQAGGSLRLSCVASGRTFSANTMAWFRQAPGKEREFVAYTRWTDDNTDYASYADFVKGRFTAFRDNTRNTMYLQMNRLRPEDTAVYYCAAATTRGTYYSAGDYNSWGQGTQVTVSS
notes: as for B1
As to B9, in assay [1], the “% AUC to COM701-hIgG4” value came to 77.2%, the “% AUC to SRF813-hIgG1” value worked out at 77.3%, the “% IC50 to COM701-hIgG4” value is 54.1% and the “% IC50 to SRF813-hIgG1” value turned out to be 72.4%. Further, in assay [2], the Kd was 0.377 nM, the off-rate constant (koff) is 2.31e-05 s⁻¹ and the kon stood at 61200 M⁻¹ s⁻¹. This molecule returned an IC50 in assay [3] of 0.208 nM.
